Each block holds one substance with its values, some of them ahead of it. No end group written: not given here.
Legend:
[1] = relative to native protein; cited from earlier work
[2] = Serum half-life after intravenous injection into mice; assay type: in vivo; conditions: for serum half-life: mice, intravenous injection
Procedure: uPA1-48 was produced in yeast, purified and concentrated into PBS. When produced in yeast, uPA1-48 lacks a fucosylation which is present when the protein is expressed in mammalian cells. The purified protein was injected intravenously into mice. Blood samples were collected at various time points, and the amount of uPA1-48 present in each sample was determined.
Pharmaceutical preparations comprising the conjugates of uPA1-48 and PEG were injected intravenously into mice. Blood samples were collected at various time points, and the amount of conjugate present in the blood was determined for each time point.

[3] = tested on: KM12 L4A cells (human colorectal carcinoma cancer with high metastatic potential); assay: Liver metastases in post-resection colorectal carcinoma model (KM12 L4A, spleen removed); assay type: in vivo, mice; conditions: 1000 μg SC twice per week, vs vehicle
Procedure: Thirty male Nu/Nu mice were injected intrasplenically with 0.5×10^6 KM12 L4A cells (human colorectal carcinoma cancer with high metastatic potential), and the spleens of all the mice were removed 3 days after implantation of the KM12 L4A cells. The mice were divided into two treatment groups, and treatment was began 6 days after implantation. The first group of 15 mice received subcutaneous administrations of 1000 μg PEG hu1-48(20 kD PEG) twice per week, and the second group of 15 mice received saline vehicle only and served as the control group. The experiment was terminated 27 days after implantation of the KM12 L4A cells, and the weight of the livers were determined and histologically scored for metastatic foci.

[4] = tested on: MDA MB231 cells (human breast carcinoma); assay: Breast carcinoma MDA MB231 subcutaneous tumor growth in NOD/Ltz mice; assay type: in vivo; conditions: for tumor growth reduced: vs vehicle control at 9 weeks, p=0.05
Procedure: Thirty NOD/Ltz mice were injected subcutaneously with 2×10^6 MDA MB231 cells (human breast carcinoma) on day 0. The mice were divided into three groups of 10 mice each, and the treatment of the three groups of mice began on day 1. Twice every week, group 1 was subcutaneously injected with 30 μg PEG hu1-48 (20 kD PEG), group 2 was subcutaneously injected with 300 μg PEG hu1-48 (20 kD PEG), and group 3 was subcutaneously injected with the vehicle (PBS). Treatment was continued for 9 weeks. The primary tumor volume (mm^3) was measured three times per week for 12 weeks, and the experiment was terminated when mean tumor volume in vehicle control group exceeded 2000 mm^3.

[5] = tested on: PC-3 mm2 cells (human prostate carcinoma); assay: Human prostate carcinoma PC-3 mm2 orthotopic tumor growth in nude mice; assay type: in vivo; conditions: 300 μg SC twice per week for 3 weeks, vs vehicle control
Procedure: The prostates of 18 nude mice were injected with 1×10^5 PC-3 mm2 cells (human prostate carcinoma) on day 0. The mice were divided into two groups of nine mice each, and treatment was initiated on day 3 and continued for 3 weeks. Twice per week, the mice of group 1 received 300 μg PEG hu1-48 (20 kD PEG) by subcutaneous administration, and the mice of group 2 received vehicle only by subcutaneous administration. Three weeks after the implantation of the human prostate carcinoma cells, the prostates of the mice were excised and weighed to determine effects of treatment on the primary tumor growth.

[6] = Pharmacokinetics after single IV bolus or SC dose in cynomologous monkeys (active protein measured by receptor binding activity); assay type: in vivo; conditions: for t1/2: functional half-life
Procedure: As above, blood samples were collected at various time points, and the amount of conjugate present in the blood was determined for each time point. The method measures the receptor binding activity instead of just the total protein present; thus the amount of protein measured as a function of time represents the active protein, and the measured half-life represents functional half-life. The data is shown in Table 1, and a graph illustrating plasma disposition of PEG hu1-48 over time is included in FIG. 1.

[7] = target: uPAR (Homo sapiens, UniProt Q03405); assay: uPAR receptor binding activity (method of Goodson et al.); conditions: for IC50: uPAR receptor binding
[8] = tested on: KM12 L4A cells (human colorectal adenocarcinoma); assay: Colon cancer tumor growth and liver metastases, intrasplenic KM12 L4A in nude mice; assay type: in vivo; conditions: 250 μg BID SC five times per week, 4 weeks
Procedure: Twenty 10 week old Nude male mice were injected intrasplenically with 1×10^6 KM12 L4A cells (human colorectal adenocarcinoma) on day 0. The mice were divided into two groups, and treatment was initiated on day 1 post-implantation and continued for 4 weeks. Group 1, consisting of 10 mice, were subcutaneously injected five times per week with PEG hu1-48 (20 kD PEG) and 250 μg BID while group 2 mice acted as the control and were injected with vehicle only. The animals were sacrificed all 5 weeks, and the spleens of the animals from each group were weighed to determine primary tumor burden (FIG. 4A). The livers were weighed to determine metastatic tumor burden, and were scored by histological examination for incidence of metastases (FIG. 4B). […] For the purposes of comparison, the average splenic weight for mice in this age group is about 240 mg.

Chain of uPAR (Q03405 23-335): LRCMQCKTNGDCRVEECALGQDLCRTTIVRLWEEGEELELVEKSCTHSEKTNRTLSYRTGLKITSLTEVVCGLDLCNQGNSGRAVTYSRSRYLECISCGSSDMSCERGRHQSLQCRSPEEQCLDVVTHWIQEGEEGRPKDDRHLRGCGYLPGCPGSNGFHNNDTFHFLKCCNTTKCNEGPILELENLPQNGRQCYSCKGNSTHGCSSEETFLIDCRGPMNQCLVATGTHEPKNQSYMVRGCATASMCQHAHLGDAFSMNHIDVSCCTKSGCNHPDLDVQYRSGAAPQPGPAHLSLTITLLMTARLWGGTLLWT

Substance: PEG20 kD to IL-1ra: literature conjugate of PEG20 kD with IL-1ra (Gaertner and Offord 1996)
change in half-life on conjugation to PEG20 kD [1]: almost seven-fold increase

Substance: uPA1-48/PEG25 kD conjugate: uPA1-48 N-terminal aldehyde coupled to PEG hydrazide of nominal average molecular weight 25 kD ({PEG 25 kDa hydrazone}-SNELHQVPSNCDCLNGGTCVSNKYFSNIHWCNCPKKFGGQHCEIDKSK; cysteine pairing not given here; UniProt P00749 21-68, looked up, fragment)
serum half-life [2]: 4.62 h

Substance: IL-8/PEG20 kD conjugate: literature conjugate of IL-8 with PEG20 kD (Gaertner and Offord 1996)
change in half-life on conjugation to PEG20 kD [1]: no change

Substance: uPA1-48 /PEG3.4 kD conjugate: uPA1-48 N-terminal aldehyde coupled to PEG hydrazide of nominal average molecular weight 3.4 kD ({PEG 3.4 kDa hydrazone}-SNELHQVPSNCDCLNGGTCVSNKYFSNIHWCNCPKKFGGQHCEIDKSK; cysteine pairing not given here; UniProt P00749 21-68, looked up, fragment)
serum half-life [2]: 0.2 h

decrease in biological activity ([7]; relative to uPA1-48, uPAR binding): four-fold
IC50 [7]: 1 nM
Substance: uPA1-48/PEG20 kD conjugate: uPA1-48 N-terminal aldehyde coupled to PEG hydrazide of nominal average molecular weight 20 kD ({PEG 20 kDa hydrazone}-SNELHQVPSNCDCLNGGTCVSNKYFSNIHWCNCPKKFGGQHCEIDKSK; cysteine pairing not given here; UniProt P00749 21-68, looked up, fragment)
overall liver tumor burden ([3]; day 27): trend toward a reduction
metastases to the liver ([3]; p value <0.05, day 27): significantly reduced metastases to the liver
serum half-life [2]: 2.17 h
increase in serum half-life ([2]; relative to unmodified uPA1-48, mice): 13 fold
tumor growth reduced ([4]; 30 μg SC twice every week): 77%
tumor growth reduced ([4]; 300 μg SC twice every week): 98%
effect after treatment was stopped (day 63) ([4]; 300 μg group observed additional 3 weeks, tumors evident by day 84): cytostatic effect
reduction in primary tumor growth (prostate weight) [5]: ~57%
t1/2 ([6]; monkey F67-344F, IV, 10 mg/kg): 6.9 h
t1/2 ([6]; monkey F67-344F, SC, 10 mg/kg): 23 h
t1/2 ([6]; monkey F7238F, IV, 10 mg/kg): 7.6 h
t1/2 ([6]; monkey F7238F, SC, 10 mg/kg): 26 h
t1/2 ([6]; monkey F7281F, IV, 8.8 mg/kg): 6.4 h
t1/2 ([6]; monkey F7281F, SC, 10 mg/kg): 14 h
AUC ([6]; monkey F67-344F, IV, 10 mg/kg): 3297918 nM·min
CL ([6]; monkey F67-344F, IV, 10 mg/kg): 0.6 mL/min/kg
Cmax ([6]; monkey F67-344F, IV, 10 mg/kg): 19.143 µM
F ([6]; monkey F67-344F, IV, 10 mg/kg): 100%
MRT ([6]; monkey F67-344F, IV, 10 mg/kg): 7.4 h
Tmax ([6]; monkey F67-344F, IV, 10 mg/kg): 0 h
Vss ([6]; monkey F67-344F, IV, 10 mg/kg): 0.252 L/kg
AUC ([6]; monkey F67-344F, SC, 10 mg/kg): 3803604 nM·min
Cmax ([6]; monkey F67-344F, SC, 10 mg/kg): 2.596 µM
F ([6]; monkey F67-344F, SC, 10 mg/kg): 115%
MRT ([6]; monkey F67-344F, SC, 10 mg/kg): 31 h
Tmax ([6]; monkey F67-344F, SC, 10 mg/kg): 8 h
AUC ([6]; monkey F7238F, IV, 10 mg/kg): 3002085 nM·min
CL ([6]; monkey F7238F, IV, 10 mg/kg): 0.6 mL/min/kg
Cmax ([6]; monkey F7238F, IV, 10 mg/kg): 30.564 µM
F ([6]; monkey F7238F, IV, 10 mg/kg): 100%
MRT ([6]; monkey F7238F, IV, 10 mg/kg): 6.6 h
Tmax ([6]; monkey F7238F, IV, 10 mg/kg): 0 h
Vss ([6]; monkey F7238F, IV, 10 mg/kg): 0.249 L/kg
AUC ([6]; monkey F7238F, SC, 10 mg/kg): 3057502 nM·min
Cmax ([6]; monkey F7238F, SC, 10 mg/kg): 2.155 µM
F ([6]; monkey F7238F, SC, 10 mg/kg): 101%
MRT ([6]; monkey F7238F, SC, 10 mg/kg): 28 h
Tmax ([6]; monkey F7238F, SC, 10 mg/kg): 4 h
AUC ([6]; monkey F7281F, IV, 8.8 mg/kg): 1987996 nM·min
CL ([6]; monkey F7281F, IV, 8.8 mg/kg): 0.8 mL/min/kg
Cmax ([6]; monkey F7281F, IV, 8.8 mg/kg): 19.199 µM
F ([6]; monkey F7281F, IV, 8.8 mg/kg): 100%
MRT ([6]; monkey F7281F, IV, 8.8 mg/kg): 5.1 h
Tmax ([6]; monkey F7281F, IV, 8.8 mg/kg): 0 h
Vss ([6]; monkey F7281F, IV, 8.8 mg/kg): 0.255 L/kg
AUC ([6]; monkey F7281F, SC, 10 mg/kg): 2337888 nM·min
Cmax ([6]; monkey F7281F, SC, 10 mg/kg): 1.126 µM
F ([6]; monkey F7281F, SC, 10 mg/kg): 103%
MRT ([6]; monkey F7281F, SC, 10 mg/kg): 31 h
Tmax ([6]; monkey F7281F, SC, 10 mg/kg): 8 h
incidence of liver metastases ([8]; 6 control mice had metastases, p<0.005): no observed metastases
mice with visible tumors in the spleen ([8]; of 10 mice): 7 mice
average spleen weight ([8]; ±113, control 641 mg, normal about 240 mg): 269 mg

Substance: uPA1-48/PEG50 kD dimeric conjugate: a uPA1-48 molecule conjugated at each end of PEG50 kD (SNELHQVPSNCDCLNGGTCVSNKYFSNIHWCNCPKKFGGQHCEIDKSK; cysteine pairing not given here; also: dimer: one uPA1-48 conjugated at each end of PEG 50 kDa, site not given here; UniProt P00749 21-68, looked up, fragment)
serum half-life [2]: 4.8 h

IC50 [7]: 0.25 nM
Substance: uPA1-48: catalytically inactive protein comprising the first 48 amino acids of human uPA (EGF-like domain), produced in yeast (SNELHQVPSNCDCLNGGTCVSNKYFSNIHWCNCPKKFGGQHCEIDKSK; UniProt P00749 21-68, looked up, fragment)
serum half-life [2]: approximately 10 minutes

Substance: uPA1-48/PEG5 kD conjugate: uPA1-48 N-terminal aldehyde coupled to PEG hydrazide of nominal average molecular weight 5 kD ({PEG 5 kDa hydrazone}-SNELHQVPSNCDCLNGGTCVSNKYFSNIHWCNCPKKFGGQHCEIDKSK; cysteine pairing not given here; UniProt P00749 21-68, looked up, fragment)
serum half-life [2]: 0.733 h

Source: patent US7022673B2, “Method for increasing the serum half-life of a biologically active molecule” (Chiron Corporation, priority 1998, dated 2006)
